Test results as given in the supplement of paper PMC9112550, “Optimization of the antimicrobial peptide Bac7 by deep mutational scanning” (BMC Biology, 2022).

System: Escherichia coli TOP10
Assay: shrunken log2 fold change of peptide-encoding DNA abundance (4.5 h post-induction vs induction); higher = less antimicrobial activity (less host growth inhibition)
Details: time post-induction: 4.5 h; library: site-saturation at positions 5, 18, 19, 20
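Further: peptides expressed intracellularly from a pBAD plasmid library in pooled LB shake-flask culture, induced with 0.3% L-arabinose, DNA abundance read by NGS, three biological replicates, DESeq2 with apeglm shrinkage.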

Q: RRIRDRPPRLPRPRPRPKWTPRP was tested. Which “shrunken log2 fold change” value did it give?
A: The value was 0.0796.

Q: How did the “shrunken log2 fold change” value turn out when RRIRFRPPRLPRPRPRPGLSPRP was run?
A: The value was -0.0429.

Q: RRIRMRPPRLPRPRPRPGCHPRP was tested. Which “shrunken log2 fold change” value did it give?
A: The value was 0.0532.

Q: Which “shrunken log2 fold change” value does the source give for RRIRMRPPRLPRPRPRPYDHPRP here?
A: Its value is -0.141.

Q: RRIRPRPPRLPRPRPRPDPVPRP was tested. Which “shrunken log2 fold change” value did it give?
A: Its value is 0.214.

Q: RRIRVRPPRLPRPRPRPNLKPRP was tested. Which “shrunken log2 fold change” value did it give?
A: The value was -0.0252.

Q: How did the “shrunken log2 fold change” value turn out when RRIRMRPPRLPRPRPRPHYSPRP was run?
A: Its value is -0.624.

Q: How did the “shrunken log2 fold change” value turn out when RRIRSRPPRLPRPRPRPHDLPRP was run?
A: The value was 0.0653.

Q: With RRIRHRPPRLPRPRPRPAHRPRP as the sequence, how does the “shrunken log2 fold change” value read?
A: Its value is 0.162.

Q: With RRIRCRPPRLPRPRPRPCYCPRP as the sequence, how does the “shrunken log2 fold change” value read?
A: Its value is -0.399.

Q: Which “shrunken log2 fold change” value does the source give for RRIRNRPPRLPRPRPRPAAAPRP here?
A: The value was 0.43.

Q: Which “shrunken log2 fold change” value does the source give for RRIRQRPPRLPRPRPRPGLIPRP here?
A: Its value is -0.118.

Q: For RRIRVRPPRLPRPRPRPKERPRP, which “shrunken log2 fold change” value is on record?
A: Its value is 0.0774.

Q: Which “shrunken log2 fold change” value does the source give for RRIRCRPPRLPRPRPRPMIDPRP here?
A: The value was 0.0647.

Q: How did the “shrunken log2 fold change” value turn out when RRIRIRPPRLPRPRPRPGLNPRP was run?
A: Its value is 1.

Q: With RRIRSRPPRLPRPRPRPQDIPRP as the sequence, how does the “shrunken log2 fold change” value read?
A: The value was -0.296.

Q: How did the “shrunken log2 fold change” value turn out when RRIRFRPPRLPRPRPRPIYWPRP was run?
A: The value was 0.0843.

Q: Which “shrunken log2 fold change” value does the source give for RRIRFRPPRLPRPRPRPLQNPRP here?
A: Its value is 0.0294.

Q: RRIRVRPPRLPRPRPRPSLFPRP was tested. Which “shrunken log2 fold change” value did it give?
A: The value was -0.269.

Q: RRIRCRPPRLPRPRPRPYDVPRP was tested. Which “shrunken log2 fold change” value did it give?
A: The value was -0.0223.

Q: RRIRIRPPRLPRPRPRPKMVPRP was tested. Which “shrunken log2 fold change” value did it give?
A: The value was -0.159.

Q: For RRIRQRPPRLPRPRPRPHTPPRP, which “shrunken log2 fold change” value is on record?
A: The value was -0.147.

Q: How did the “shrunken log2 fold change” value turn out when RRIRGRPPRLPRPRPRPYNRPRP was run?
A: Its value is 0.00858.

Q: How did the “shrunken log2 fold change” value turn out when RRIRSRPPRLPRPRPRPLHNPRP was run?
A: The value was -0.198.

Q: How did the “shrunken log2 fold change” value turn out when RRIRTRPPRLPRPRPRPDDYPRP was run?
A: The value was -0.111.

Q: Which “shrunken log2 fold change” value does the source give for RRIRARPPRLPRPRPRPLLTPRP here?
A: Its value is 0.667.

Q: How did the “shrunken log2 fold change” value turn out when RRIRSRPPRLPRPRPRPAAGPRP was run?
A: The value was 0.585.

Q: How did the “shrunken log2 fold change” value turn out when RRIRPRPPRLPRPRPRPFKAPRP was run?
A: Its value is -0.0573.

Q: RRIRTRPPRLPRPRPRPWIFPRP was tested. Which “shrunken log2 fold change” value did it give?
A: The value was -0.0415.

Q: Which “shrunken log2 fold change” value does the source give for RRIRTRPPRLPRPRPRPVNMPRP here?
A: The value was -0.192.

Q: With RRIRHRPPRLPRPRPRPDESPRP as the sequence, how does the “shrunken log2 fold change” value read?
A: The value was 0.0491.

Q: How did the “shrunken log2 fold change” value turn out when RRIRARPPRLPRPRPRPIHVPRP was run?
A: Its value is -0.143.

Q: RRIRDRPPRLPRPRPRPQRMPRP was tested. Which “shrunken log2 fold change” value did it give?
A: Its value is -0.0312.

Q: RRIRKRPPRLPRPRPRPPVLPRP was tested. Which “shrunken log2 fold change” value did it give?
A: Its value is -0.0742.

Q: With RRIRMRPPRLPRPRPRPMINPRP as the sequence, how does the “shrunken log2 fold change” value read?
A: Its value is -0.00763.

Q: RRIRMRPPRLPRPRPRPTWFPRP was tested. Which “shrunken log2 fold change” value did it give?
A: Its value is 0.448.

Q: RRIRCRPPRLPRPRPRPVNYPRP was tested. Which “shrunken log2 fold change” value did it give?
A: Its value is -0.376.

Q: How did the “shrunken log2 fold change” value turn out when RRIRSRPPRLPRPRPRPFAFPRP was run?
A: The value was -0.0807.

Q: RRIRRRPPRLPRPRPRPPMCPRP was tested. Which “shrunken log2 fold change” value did it give?
A: The value was 0.622.

Q: With RRIRNRPPRLPRPRPRPDCVPRP as the sequence, how does the “shrunken log2 fold change” value read?
A: The value was -0.106.

Q: How did the “shrunken log2 fold change” value turn out when RRIRHRPPRLPRPRPRPAPPPRP was run?
A: The value was 0.854.

Q: RRIRIRPPRLPRPRPRPCFNPRP was tested. Which “shrunken log2 fold change” value did it give?
A: The value was -0.87.

Q: RRIRMRPPRLPRPRPRPCDFPRP was tested. Which “shrunken log2 fold change” value did it give?
A: Its value is -0.121.

Q: For RRIRDRPPRLPRPRPRPVYQPRP, which “shrunken log2 fold change” value is on record?
A: The value was -0.263.

Q: For RRIRRRPPRLPRPRPRPPGEPRP, which “shrunken log2 fold change” value is on record?
A: The value was 0.705.

Q: RRIRFRPPRLPRPRPRPMANPRP was tested. Which “shrunken log2 fold change” value did it give?
A: The value was -0.104.

Q: For RRIRFRPPRLPRPRPRPGTQPRP, which “shrunken log2 fold change” value is on record?
A: The value was -0.0219.

Q: Which “shrunken log2 fold change” value does the source give for RRIRERPPRLPRPRPRPHMVPRP here?
A: Its value is -0.174.

Q: RRIRGRPPRLPRPRPRPWLKPRP was tested. Which “shrunken log2 fold change” value did it give?
A: The value was -0.24.

Q: Which “shrunken log2 fold change” value does the source give for RRIRYRPPRLPRPRPRPITIPRP here?
A: The value was -0.149.

Q: RRIRLRPPRLPRPRPRPLMDPRP was tested. Which “shrunken log2 fold change” value did it give?
A: The value was -0.0257.

Q: For RRIRYRPPRLPRPRPRPIFCPRP, which “shrunken log2 fold change” value is on record?
A: Its value is -0.201.

Q: RRIRIRPPRLPRPRPRPFDIPRP was tested. Which “shrunken log2 fold change” value did it give?
A: The value was -1.02.

Q: Which “shrunken log2 fold change” value does the source give for RRIRARPPRLPRPRPRPMCIPRP here?
A: The value was 0.143.

Q: For RRIRVRPPRLPRPRPRPCWDPRP, which “shrunken log2 fold change” value is on record?
A: The value was -0.154.

Q: How did the “shrunken log2 fold change” value turn out when RRIRLRPPRLPRPRPRPSCCPRP was run?
A: The value was -0.212.

Q: Which “shrunken log2 fold change” value does the source give for RRIRPRPPRLPRPRPRPPNRPRP here?
A: Its value is 0.29.

Q: RRIRCRPPRLPRPRPRPNYTPRP was tested. Which “shrunken log2 fold change” value did it give?
A: The value was -0.879.
